{
  "source": "paper PMC10627809",
  "about": "“Histones with an unconventional DNA-binding mode in vitro are major chromatin constituents in the bacterium Bdellovibrio bacteriovorus” (Nature Microbiology, 2023)",
  "binders": {"B1": {"name": "35 bp crystallization DNA (dsDNA)", "DNA 1": "TCTTGCACTAAGAGCTACTGGAGTGCGTCAGATGT", "DNA 2": "ACATCTGACGCACTCCAGTAGCTCTTAGTGCAAGA"}, "B2": {"name": "Bd0055, B. bacteriovorus histone (natural protein, Bdellovibrio bacteriovorus HD100, UniProt Q6MRM1 1-64, looked up)", "chain": "MAEVLVVTSKVKKLIKEKGQMNTSAETIDVLSKAIEQLCLKGVESAKADGRKTVMARDIVIDHL", "notes": "Bd0055, singlet histone-fold protein of Bdellovibrio bacteriovorus HD100; open reading frame codon optimized for E. coli, cloned into a pET vector; No tag is named; purified by cation exchange, heparin and size exclusion; Histone-fold homodimer in both crystal structures; also called wild type Bd0055; bacterial histone Bd0055; source: E. coli, purified (SP HP, Heparin HP, S75)"}},
  "key": {"Bd0055": {"target": "T1, Bd0055 (UniProt Q6MRM1 1-64)", "T1 sequence": "B2 chain", "assay": "X-ray crystallography; 1 dimer per 2.5 bp; straight DNA; asymmetric unit has one dimer with 2 nt + 3 nt; FP/FRET: 10 nM DNA, 10 mM NaCl, 1 mM EDTA, 50 mM HEPES pH 6, r.t.; EMSA: 1 µM DNA, 10 mM NaCl, 1 mM EDTA, 50 mM HEPES pH 7.5, r.t., 10% native PAGE 0.2x TBE", "conditions": "protein: recombinant; chain copies: 2; blunt"}, "[1]": {"target": "the molecule itself", "assay": "crystal structure; apo Bd0055; hanging drop, 3.2 M (NH4)2SO4, 100 mM BICINE pH 9; 1.8 Å"}},
  "data": [
    {"binder": "B1", "values": [
      {"measurement": "binding result", "setting": "Bd0055", "result": "binds"}
    ]},
    {"binder": "B2", "values": [
      {"measurement": "binding result", "setting": "[1]", "result": "binds"}
    ]}
  ]
}
